Changes are numbered by the printed parent chain. No end group written: not given here.
T1: estrogen receptor (ER) α as a carboxy-terminal fusion to the Gal4-activation domain (yeast, UniProt P03372 1-595, limits assumed)
T1 sequence (looked up): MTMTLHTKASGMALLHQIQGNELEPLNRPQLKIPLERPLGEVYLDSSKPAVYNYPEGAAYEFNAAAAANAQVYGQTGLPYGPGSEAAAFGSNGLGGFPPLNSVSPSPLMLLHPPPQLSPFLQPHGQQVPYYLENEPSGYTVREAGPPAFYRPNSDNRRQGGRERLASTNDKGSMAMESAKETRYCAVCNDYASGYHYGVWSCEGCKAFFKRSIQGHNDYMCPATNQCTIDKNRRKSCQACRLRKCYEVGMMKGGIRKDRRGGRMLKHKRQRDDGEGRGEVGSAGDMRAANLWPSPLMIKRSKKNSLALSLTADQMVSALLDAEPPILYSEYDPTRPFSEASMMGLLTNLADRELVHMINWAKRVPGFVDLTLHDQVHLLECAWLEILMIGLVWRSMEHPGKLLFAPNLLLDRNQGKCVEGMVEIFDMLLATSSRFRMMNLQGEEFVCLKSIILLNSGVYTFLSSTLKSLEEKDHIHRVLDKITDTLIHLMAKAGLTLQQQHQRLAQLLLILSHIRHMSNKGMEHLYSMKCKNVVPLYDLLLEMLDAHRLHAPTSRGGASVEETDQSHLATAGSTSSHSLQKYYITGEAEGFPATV

T2: Gal4 transcriptional activation domain (AD) fused in frame with AR (yeast, UniProt P10275 1-920, limits assumed)
T2 sequence (looked up): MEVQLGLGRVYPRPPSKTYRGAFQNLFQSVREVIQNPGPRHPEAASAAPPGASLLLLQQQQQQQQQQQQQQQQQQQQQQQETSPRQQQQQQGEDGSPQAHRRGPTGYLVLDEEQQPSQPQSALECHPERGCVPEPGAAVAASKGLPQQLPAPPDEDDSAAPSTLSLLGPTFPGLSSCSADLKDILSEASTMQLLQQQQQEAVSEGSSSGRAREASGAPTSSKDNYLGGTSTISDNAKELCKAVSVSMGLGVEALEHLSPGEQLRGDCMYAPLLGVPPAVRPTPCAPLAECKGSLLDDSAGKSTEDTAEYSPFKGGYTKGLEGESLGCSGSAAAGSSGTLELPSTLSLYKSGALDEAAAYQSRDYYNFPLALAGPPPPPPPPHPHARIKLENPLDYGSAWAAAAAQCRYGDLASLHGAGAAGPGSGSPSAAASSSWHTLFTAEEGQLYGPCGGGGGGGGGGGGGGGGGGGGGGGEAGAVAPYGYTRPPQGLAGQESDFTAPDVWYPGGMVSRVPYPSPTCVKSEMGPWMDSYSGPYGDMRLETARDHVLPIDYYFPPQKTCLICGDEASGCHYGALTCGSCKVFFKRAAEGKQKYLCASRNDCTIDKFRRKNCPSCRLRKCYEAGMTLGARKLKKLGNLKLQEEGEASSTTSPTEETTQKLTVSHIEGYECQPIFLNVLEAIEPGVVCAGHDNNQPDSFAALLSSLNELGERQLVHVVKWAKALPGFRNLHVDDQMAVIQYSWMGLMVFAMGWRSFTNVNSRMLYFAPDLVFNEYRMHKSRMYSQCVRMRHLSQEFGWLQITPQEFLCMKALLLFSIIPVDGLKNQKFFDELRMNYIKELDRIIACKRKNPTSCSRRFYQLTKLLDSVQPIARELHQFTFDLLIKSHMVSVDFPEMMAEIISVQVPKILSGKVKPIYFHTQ

T3: ER α (UniProt P03372 1-595, limits assumed)
T3 construct: also called estrogen receptor α; ERα-ERE
T3 sequence (looked up): T1 sequence (looked up)

B1: B1A1 (peptide)
chain: MKLLSSIEQACDICRLKKLKCSKEKPKCAKCLKNNWECRYSPKTKRSPLTRAHLTEVESRLERLEQLFLLIFPREDLDMILKMDSLQDIKALLTGLFVQDNVNKDAVTDRLASVETDMPLTLRQHRISATSSSEESSNKGQRQLTVSEFCPVGLLVHLLMQ
B2: B1G8 (peptide)
chain: B1 chain with C150T, P151S, G153S, L154R, H157T, M160L
B3: B6A1 (peptide)
chain: MKLLSSIEQACDICRLKKLKCSKEKPKCAKCLKNNWECRYSPKTKRSPLTRAHLTEVESRLERLEQLFLLIFPREDLDMILKMDSLQDIKALLTGLFVQDNVNKDAVTDRLASVETDMPLTLRQHRISATSSSEESSNKGQRQLTVSEFTGSRLLLKLLRFPDSSTCSQA
B4: B6F3 (peptide)
chain: MKLLSSIEQACDICRLKKLKCSKEKPKCAKCLKNNWECRYSPKTKRSPLTRAHLTEVESRLERLEQLFLLIFPREDLDMILKMDSLQDIKALLTGLFVQDNVNKDAVTDRLASVETDMPLTLRQHRISATSSSEESSNKGQRQLTVSEFFRATHLLRLLRTDSALDLQPS
B5: B2G1 (peptide)
chain: B4 chain with A152L, T153R, H154R, L156D, R160Q, T161D, D162S, S163F, A164L
B6: B4F6 (peptide)
chain: MKLLSSIEQACDICRLKKLKCSKEKPKCAKCLKNNWECRYSPKTKRSPLTRAHLTEVESRLERLEQLFLLIFPREDLDMILKMDSLQDIKALLTGLFVQDNVNKDAVTDRLASVETDMPLTLRQHRISATSSSEESSNKGQRQLTVSEFSGVPILHMLLMLPSSLDLQPS
B7: B6C4 (peptide)
chain: MKLLSSIEQACDICRLKKLKCSKEKPKCAKCLKNNWECRYSPKTKRSPLTRAHLTEVESRLERLEQLFLLIFPREDLDMILKMDSLQDIKALLTGLFVQDNVNKDAVTDRLASVETDMPLTLRQHRISATSSSEESSNKGQRQLTVSEFDRSSILVSLLSMVETLDLQPS
B8: B5A2 (peptide)
chain: B7 chain with D150G, R151C, S153A, V156R, S157Y, S160R, M161S, V162P, E163R, T164D
B9: B5H10 (peptide)
chain: MKLLSSIEQACDICRLKKLKCSKEKPKCAKCLKNNWECRYSPKTKRSPLTRAHLTEVESRLERLEQLFLLIFPREDLDMILKMDSLQDIKALLTGLFVQDNVNKDAVTDRLASVETDMPLTLRQHRISATSSSEESSNKGQRQLTVSEFSPPSSLLALLLGGKSLEPLPIRYKNVKRQFTSNSRGSVDLQPS
B10: B3E2 (peptide)
chain: MKLLSSIEQACDICRLKKLKCSKEKPKCAKCLKNNWECRYSPKTKRSPLTRAHLTEVESRLERLEQLFLLIFPREDLDMILKMDSLQDIKALLTGLFVQDNVNKDAVTDRLASVETDMPLTLRQHRISATSSSEESSNKGQRQLTVSEFGGSVLLRELLCCYDALEPTTTR
B11: B8A10 (peptide)
chain: MKLLSSIEQACDICRLKKLKCSKEKPKCAKCLKNNWECRYSPKTKRSPLTRAHLTEVESRLERLEQLFLLIFPREDLDMILKMDSLQDIKALLTGLFVQDNVNKDAVTDRLASVETDMPLTLRQHRISATSSSEESSNKGQRQLTVSEFVNWDAVVPWSELVALLDLQPS
B12: B18C4 (peptide)
chain: MKLLSSIEQACDICRLKKLKCSKEKPKCAKCLKNNWECRYSPKTKRSPLTRAHLTEVESRLERLEQLFLLIFPREDLDMILKMDSLQDIKALLTGLFVQDNVNKDAVTDRLASVETDMPLTLRQHRISATSSSEESSNKGQRQLTVSEFDSPWVWFGGEPGLNLLDLQPS

These binders were tested against T1, estrogen receptor (ER) α as a … (assay: cell-based or functional assay).
Wherever Fold Induction (ligand-induced β-galactosidase, two-hybrid) is given: test concentration or dose not given here.

Binder	Fold Induction (ligand-induced β-galactosidase, two-hybrid)
B1	11 fold
B2	6 fold
B3	3.5 fold
B4	3 fold
B5	12 fold
B6	5 fold
B7	2.5 fold
B8	3 fold
B9	4.5 fold
B10	3.5 fold

These binders were tested against T2, Gal4 transcriptional activation domain … (assay: cell-based or functional assay).

Binder	Fold induction (yeast two-hybrid)
B11	1 fold
B12	1 fold

Biological target: T2, Gal4 transcriptional activation domain …
Assay: cell-based or functional assay
Remark: another data set of the same source

Binder	β-galactosidase activity (yeast two-hybrid), CPA	β-galactosidase activity (yeast two-hybrid), DHT	β-galactosidase activity (yeast two-hybrid), No Lig	β-galactosidase activity (yeast two-hybrid), RU	β-galactosidase activity (yeast two-hybrid), MPA	β-galactosidase activity (yeast two-hybrid), Test
B11	0.395	0.616	0.875	0.4	–	–
B12	1.53	1.43	1.12	1.5	1.44	0.969

What follows are binders tested against T3, ER α (assay: phage isolated on ERα-ERE; Buffer).

Binder	binding result
SSRPDAAFFGAKLSR [3B]	binds
SRSYHGEWGVWTLSR [7B]	binds
SSDWCFGWGGWCASEAVSR (not fully specified; cysteine pairing not given here) [10B]	binds
SSRPTAEWFRENLSR [5B]	binds
SSRPSPSFWEKQLSR [4B]	binds
SRNWDWAALELLPYPHPSR [9B]	binds
SRWWDTSWWLEELSR [6B]	binds
SSRIADLFWRLEPSR [1B]	binds

These binders were tested against T3, ER α (assay: phage isolated on ERα on plastic; ICI 182,780).

Binder	binding result
SSRALALFPVGMESR [4PI]	binds
SSGKTREHYREGTSR [7PI]	binds
SSTATALRDRLAYSR [6PI]	binds
SSRTAEDYCFFADDYWCSR (also called 16E) [3PI]	binds
SSDCESLTSYPHLKALCSR [5PI]	binds
SSSTPGWWEWDWASR [1PI]	binds
SSYWDGSWRRKETCVSCSR [2PI]	binds

Reference: patent US20040043420A1, “Method of identifying conformation-sensitive binding peptides and uses thereof” (priority 2003, published 2004)
